Source: PMC6555819, “Comprehensive study of nuclear receptor DNA binding provides a revised framework for understanding receptor specificity”
Substitutions are numbered along the chain they refer to.

B1: NRC3_wobSeed77_DR3_G19A_o1 (dsDNA)
DNA 1: GCACTTACGGGTCAACGAAGTTATAGCACGCGTATAGCGATTGACAGCGTAGAATGAAGG
DNA 2: CCTTCATTCTACGCTGTCAATCGCTATACGCGTGCTATAACTTCGTTGACCCGTAAGTGC
B2: NRC3_wobSeed141_DR5_C26A_o1 (dsDNA)
DNA 1: GCAGTCAAAGTTCAGGACGAGGTAAAGTAAAGCACGGCGATTGACAGCGTAGAATGAAGG
DNA 2: CCTTCATTCTACGCTGTCAATCGCCGTGCTTTACTTTACCTCGTCCTGAACTTTGACTGC
B3: NRC3_wobSeed61_DR2_T24A_o1 (dsDNA)
DNA 1: GCCGTCCAAGGTCAGCAGGTCAGAGAAAGCGACGTGGCGATTGACAGCGTAGAATGAAGG
DNA 2: CCTTCATTCTACGCTGTCAATCGCCACGTCGCTTTCTCTGACCTGCTGACCTTGGACGGC
B4: NRC3_wobSeed20_DR0_A9G_o1 (dsDNA)
DNA 1: GCAGAATGGGGTTAAGATCAGGGAAACAGAATACATGCGATTGACAGCGTAGAATGAAGG
DNA 2: CCTTCATTCTACGCTGTCAATCGCATGTATTCTGTTTCCCTGATCTTAACCCCATTCTGC
B5: NRC3_wobSeed141_DR5_G22A_o1 (dsDNA)
DNA 1: B2 DNA 1 with G22A, A26C
DNA 2: B2 DNA 2 with T35G, C39T
B6: NRC3_wobSeed27_DR1_A15G_o1 (dsDNA)
DNA 1: GCACTCGGAGGACAGAGGTCAGAGCTACGCCAGTGAGCGATTGACAGCGTAGAATGAAGG
DNA 2: CCTTCATTCTACGCTGTCAATCGCTCACTGGCGTAGCTCTGACCTCTGTCCTCCGAGTGC
B7: NRC3_wobSeed34_DR1_T25C_o1 (dsDNA)
DNA 1: GCATCGAAAGGTCGAAGGTGAGTACACCCACCCGAAGCGATTGACAGCGTAGAATGAAGG
DNA 2: CCTTCATTCTACGCTGTCAATCGCTTCGGGTGGGTGTACTCACCTTCGACCTTTCGATGC
B8: NRC3_wobSeed7_DR0_A13T_o1 (dsDNA)
DNA 1: GCTCATATAGGTTAAGGTGAAAGTCGAACGATATGAGCGATTGACAGCGTAGAATGAAGG
DNA 2: CCTTCATTCTACGCTGTCAATCGCTCATATCGTTCGACTTTCACCTTAACCTATATGAGC
B9: NRC3_wobSeed4_DR0_T22A_o1 (dsDNA)
DNA 1: GCCCTACTGGGCCAAGGTCATAGATCAGTCAAAGCAGCGATTGACAGCGTAGAATGAAGG
DNA 2: CCTTCATTCTACGCTGTCAATCGCTGCTTTGACTGATCTATGACCTTGGCCCAGTAGGGC
B10: NRC3_wobSeed32_DR1_A9T_o1 (dsDNA)
DNA 1: GCTCTTGTTGATCAAAGGTTAAGAAAGCCGAAGCCTGCGATTGACAGCGTAGAATGAAGG
DNA 2: CCTTCATTCTACGCTGTCAATCGCAGGCTTCGGCTTTCTTAACCTTTGATCAACAAGAGC
B11: NRC3_wobSeed133_DR5_G17T_o1 (dsDNA)
DNA 1: GCCGTCCAAGGTCAATTCTAGGTCAGTGAAAGCATTGCGATTGACAGCGTAGAATGAAGG
DNA 2: CCTTCATTCTACGCTGTCAATCGCAATGCTTTCACTGACCTAGAATTGACCTTGGACGGC
B12: NRC3_wobSeed133_DR5_C7G_o1 (dsDNA)
DNA 1: B11 DNA 1 with C7G, T17G
DNA 2: B11 DNA 2 with A44C, G54C
B13: NRC3_wobSeed138_DR5_A6T_o1 (dsDNA)
DNA 1: GCGATTCAGGGTCAGCTAGAGGCCAGAGTATGGAAAGCGATTGACAGCGTAGAATGAAGG
DNA 2: CCTTCATTCTACGCTGTCAATCGCTTTCCATACTCTGGCCTCTAGCTGACCCTGAATCGC
B14: NRC3_wobSeed74_DR3_A27G_o1 (dsDNA)
DNA 1: GCTCTAGTTGGTCACGGAGGTCACACGCGACGGGTAGCGATTGACAGCGTAGAATGAAGG
DNA 2: CCTTCATTCTACGCTGTCAATCGCTACCCGTCGCGTGTGACCTCCGTGACCAACTAGAGC
B15: NRC3_wobSeed55_DR2_A15T_o1 (dsDNA)
DNA 1: GCTCATATAGGTAATCAGGTGAAAGTCCGTAAGTTAGCGATTGACAGCGTAGAATGAAGG
DNA 2: CCTTCATTCTACGCTGTCAATCGCTAACTTACGGACTTTCACCTGATTACCTATATGAGC
B16: NRC3_wobSeed53_DR2_C15G_o1 (dsDNA)
DNA 1: GCCCTTACGGGTCAGGAGGTTATAGCACGACGAGCGGCGATTGACAGCGTAGAATGAAGG
DNA 2: CCTTCATTCTACGCTGTCAATCGCCGCTCGTCGTGCTATAACCTCCTGACCCGTAAGGGC
B17: NRC3_wobSeed46_DR1_G10A_o1 (dsDNA)
DNA 1: GCTTACCAAAGTGAAAGGTCGTTGATGCACGCCTTGGCGATTGACAGCGTAGAATGAAGG
DNA 2: CCTTCATTCTACGCTGTCAATCGCCAAGGCGTGCATCAACGACCTTTCACTTTGGTAAGC
B18: NRC3_wobSeed58_DR2_G18C_o1 (dsDNA)
DNA 1: GCATCGAAAGGTCGTGACGTGAGTATACAGAAAGGCGCGATTGACAGCGTAGAATGAAGG
DNA 2: CCTTCATTCTACGCTGTCAATCGCGCCTTTCTGTATACTCACGTCACGACCTTTCGATGC
B19: NRC3_wobSeed22_DR0_T22G_o1 (dsDNA)
DNA 1: GCTTACCAAGGTGAAGGTCGTGGATCCCTCTGTAGAGCGATTGACAGCGTAGAATGAAGG
DNA 2: CCTTCATTCTACGCTGTCAATCGCTCTACAGAGGGATCCACGACCTTCACCTTGGTAAGC
B20: NRC3_wobSeed85_DR3_A27T_o1 (dsDNA)
DNA 1: GCCGTCCAAGGTCAGAGAGGTCAGTGTATGCCGAGTGCGATTGACAGCGTAGAATGAAGG
DNA 2: CCTTCATTCTACGCTGTCAATCGCACTCGGCATACACTGACCTCTCTGACCTTGGACGGC
B21: NRC3_wobSeed79_DR3_C17A_o1 (dsDNA)
DNA 1: GCTCATATAGGTAATAAAGGTGAAAGTCGGCATCTAGCGATTGACAGCGTAGAATGAAGG
DNA 2: CCTTCATTCTACGCTGTCAATCGCTAGATGCCGACTTTCACCTTTATTACCTATATGAGC
B22: NRC3_wobSeed85_DR3_A28C_o1 (dsDNA)
DNA 1: B20 DNA 1 with T27A, A28C
DNA 2: B20 DNA 2 with T33G, A34T
B23: NRC3_wobSeed133_DR5_G22C_o1 (dsDNA)
DNA 1: B11 DNA 1 with T17G, G22C
DNA 2: B11 DNA 2 with C39G, A44C
B24: NRC3_wobSeed40_DR1_A21T_o1 (dsDNA)
DNA 1: GCTAGCCTAGGTCATGGGCCTGTATACCACGCGAACGCGATTGACAGCGTAGAATGAAGG
DNA 2: CCTTCATTCTACGCTGTCAATCGCGTTCGCGTGGTATACAGGCCCATGACCTAGGCTAGC
B25: NRC3_wobSeed61_DR2_C21G_o1 (dsDNA)
DNA 1: B3 DNA 1 with C21G, A24T
DNA 2: B3 DNA 2 with T37A, G40C
B26: NRC3_wobSeed20_DR0_G4A_o1 (dsDNA)
DNA 1: B4 DNA 1 with G4A, G9A
DNA 2: B4 DNA 2 with C52T, C57T
B27: NRC3_wobSeed65_DR2_T6C_o1 (dsDNA)
DNA 1: GCATACGTAGGTTATCGGGTCATTCAGTTTGCGCATGCGATTGACAGCGTAGAATGAAGG
DNA 2: CCTTCATTCTACGCTGTCAATCGCATGCGCAAACTGAATGACCCGATAACCTACGTATGC
B28: NRC3_wobSeed28_DR1_T23A_o1 (dsDNA)
DNA 1: GCCCTACTGGGCCAAAGGTCATAGATTCCAATGCTCGCGATTGACAGCGTAGAATGAAGG
DNA 2: CCTTCATTCTACGCTGTCAATCGCGAGCATTGGAATCTATGACCTTTGGCCCAGTAGGGC
B29: NRC3_wobSeed119_DR4_A9G_o1 (dsDNA)
DNA 1: GCGGAACGGGGGCATTCGAGTTGATAGCATGGCGATGCGATTGACAGCGTAGAATGAAGG
DNA 2: CCTTCATTCTACGCTGTCAATCGCATCGCCATGCTATCAACTCGAATGCCCCCGTTCCGC
B30: NRC3_wobSeed90_DR3_G9C_o1 (dsDNA)
DNA 1: GCCATACACGGTCAGCTAGGCCAGAGTAGGGACGGCGCGATTGACAGCGTAGAATGAAGG
DNA 2: CCTTCATTCTACGCTGTCAATCGCGCCGTCCCTACTCTGGCCTAGCTGACCGTGTATGGC
B31: NRC3_wobSeed125_DR5_A14G_o1 (dsDNA)
DNA 1: GCCCTTACGGGTCGCTGACAGGTTATAGCATTTGGAGCGATTGACAGCGTAGAATGAAGG
DNA 2: CCTTCATTCTACGCTGTCAATCGCTCCAAATGCTATAACCTGTCAGCGACCCGTAAGGGC
B32: NRC3_wobSeed125_DR5_G11T_o1 (dsDNA)
DNA 1: B31 DNA 1 with G11T, G14A
DNA 2: B31 DNA 2 with C47T, C50A
B33: NRC3_wobSeed10_DR0_A9C_o1 (dsDNA)
DNA 1: GCATCGAACGGTCGAGGTGAGTATAGAGAAAGGGAAGCGATTGACAGCGTAGAATGAAGG
DNA 2: CCTTCATTCTACGCTGTCAATCGCTTCCCTTTCTCTATACTCACCTCGACCGTTCGATGC
B34: NRC3_wobSeed50_DR2_A22C_o1 (dsDNA)
DNA 1: GCCCTAGTTGGTCAGGAGGTCCCACACCGGATATGAGCGATTGACAGCGTAGAATGAAGG
DNA 2: CCTTCATTCTACGCTGTCAATCGCTCATATCCGGTGTGGGACCTCCTGACCAACTAGGGC

Biological target: PPARg:RXRa (Homo sapiens, UniProt P37231;P19793 full;full)
Sequence (P37231 29-505, chain 1 of 2): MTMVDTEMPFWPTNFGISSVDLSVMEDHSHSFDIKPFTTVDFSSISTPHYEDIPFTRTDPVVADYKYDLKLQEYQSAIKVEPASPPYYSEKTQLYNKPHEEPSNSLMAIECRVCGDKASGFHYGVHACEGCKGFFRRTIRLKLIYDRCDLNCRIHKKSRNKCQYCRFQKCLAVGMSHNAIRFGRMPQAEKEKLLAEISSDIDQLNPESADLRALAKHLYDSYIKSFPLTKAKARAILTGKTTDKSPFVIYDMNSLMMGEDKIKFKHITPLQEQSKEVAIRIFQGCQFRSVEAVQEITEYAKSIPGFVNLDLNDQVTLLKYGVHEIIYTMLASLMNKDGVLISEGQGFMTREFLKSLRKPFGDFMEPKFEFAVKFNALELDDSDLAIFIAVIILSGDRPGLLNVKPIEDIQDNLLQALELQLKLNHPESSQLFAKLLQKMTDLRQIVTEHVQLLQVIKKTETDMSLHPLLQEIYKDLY
Sequence (P19793 whole entry, chain 2 of 2): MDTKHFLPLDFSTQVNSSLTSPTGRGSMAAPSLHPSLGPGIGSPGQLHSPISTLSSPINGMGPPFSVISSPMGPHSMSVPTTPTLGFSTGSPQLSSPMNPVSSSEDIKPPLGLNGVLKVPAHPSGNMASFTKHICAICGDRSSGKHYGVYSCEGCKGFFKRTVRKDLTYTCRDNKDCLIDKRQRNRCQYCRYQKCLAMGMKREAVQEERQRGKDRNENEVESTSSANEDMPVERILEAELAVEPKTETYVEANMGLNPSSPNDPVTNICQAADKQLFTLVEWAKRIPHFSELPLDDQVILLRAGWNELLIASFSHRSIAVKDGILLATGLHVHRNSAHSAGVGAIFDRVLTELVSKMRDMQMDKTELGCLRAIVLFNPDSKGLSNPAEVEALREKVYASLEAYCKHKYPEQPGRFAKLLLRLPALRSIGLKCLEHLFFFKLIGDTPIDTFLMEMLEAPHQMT
Assay: no ligand; PBM; 180 nM : 90 nM RXRa; PBS pH 7.4, 2% milk, 0.02% Triton X-100, 1 mM DTT, BSA, 0.4 mg/ml salmon testes DNA
Settings: tags: His kept;His cleaved; copies: 1;1; label: surface-attached array probe

Binder	binding signal
B1	4.99 PBM z-score against 500 random probes
B2	4.92 PBM z-score against 500 random probes
B3	4.83 PBM z-score against 500 random probes
B4	4.73 PBM z-score against 500 random probes
B5	4.64 PBM z-score against 500 random probes
B6	4.56 PBM z-score against 500 random probes
B7	4.49 PBM z-score against 500 random probes
B8	4.42 PBM z-score against 500 random probes
B9	4.36 PBM z-score against 500 random probes
B10	4.28 PBM z-score against 500 random probes
B11	4.21 PBM z-score against 500 random probes
B12	4.13 PBM z-score against 500 random probes
B13	4.08 PBM z-score against 500 random probes
B14	3.93 PBM z-score against 500 random probes
B15	3.84 PBM z-score against 500 random probes
B16	3.77 PBM z-score against 500 random probes
B17	3.7 PBM z-score against 500 random probes

Binder	binding signal
B18	3.63 PBM z-score against 500 random probes
B19	3.58 PBM z-score against 500 random probes
B20	3.51 PBM z-score against 500 random probes
B21	3.46 PBM z-score against 500 random probes
B22	3.39 PBM z-score against 500 random probes
B23	3.28 PBM z-score against 500 random probes
B24	3.23 PBM z-score against 500 random probes
B25	3.18 PBM z-score against 500 random probes
B26	3.12 PBM z-score against 500 random probes
B27	3.06 PBM z-score against 500 random probes
B28	12.8 PBM z-score against 500 random probes
B29	3 PBM z-score against 500 random probes
B30	0.49 PBM z-score against 500 random probes
B31	0.49 PBM z-score against 500 random probes
B32	0.49 PBM z-score against 500 random probes
B33	0.48 PBM z-score against 500 random probes
B34	0.46 PBM z-score against 500 random probes
